From PMC8171077 come the findings set out here.

A short description of data set [1]: FITC-FA fluorescence microscopy of stable cell lines, 24 h. The note with it: glycan lost; control: FOLR1 WT stable cells.
The nature of data set [2]: qRT-PCR and label-free quantitative proteomics of FOLR1. The note with it: glycan changed form; control: matched control stable cells.

B1: folate receptor alpha (FOLR1): N69A (protein)
parent chain: MAQRMTTQLLLLLVWVAVVGEAQTRIAWARTELLNVCMNAKHHKEKPGPEDKLHEQCRPWRKNACCSTNTSQEAHKDVSYLYRFNWNHCGEMAPACKRHFIQDTCLYECSPNLGPWIQQVDQSWRKERVLNVPLCKEDCEQWWEDCRTSYTCKSNWHKGWNWTSGFNKCAVGAACQPFHFYFPTPTVLCNEIWTHSYKVSNYSRGSGRCIQMWFDPAQGNPNEEVARFYAAAMSGAGPWAAWPFLLSLALMLLWLLS
As to B1, the “other: folate uptake” value in data set [1] is recorded as “decreases”.

B2: folate receptor alpha (FOLR1): N161A (protein)
parent chain: MAQRMTTQLLLLLVWVAVVGEAQTRIAWARTELLNVCMNAKHHKEKPGPEDKLHEQCRPWRKNACCSTNTSQEAHKDVSYLYRFNWNHCGEMAPACKRHFIQDTCLYECSPNLGPWIQQVDQSWRKERVLNVPLCKEDCEQWWEDCRTSYTCKSNWHKGWNWTSGFNKCAVGAACQPFHFYFPTPTVLCNEIWTHSYKVSNYSRGSGRCIQMWFDPAQGNPNEEVARFYAAAMSGAGPWAAWPFLLSLALMLLWLLS
Regarding B2, the “other: folate uptake” value in data set [1] is on record as “decreases”.

B3: folate receptor alpha (FOLR1): FUT8 overexpression (protein)
parent chain: MAQRMTTQLLLLLVWVAVVGEAQTRIAWARTELLNVCMNAKHHKEKPGPEDKLHEQCRPWRKNACCSTNTSQEAHKDVSYLYRFNWNHCGEMAPACKRHFIQDTCLYECSPNLGPWIQQVDQSWRKERVLNVPLCKEDCEQWWEDCRTSYTCKSNWHKGWNWTSGFNKCAVGAACQPFHFYFPTPTVLCNEIWTHSYKVSNYSRGSGRCIQMWFDPAQGNPNEEVARFYAAAMSGAGPWAAWPFLLSLALMLLWLLS
As for B3, the expression_or_secretion entry in data set [2] is “no change”.

B4: folate receptor alpha (FOLR1): shFUT8 (protein)
parent chain: MAQRMTTQLLLLLVWVAVVGEAQTRIAWARTELLNVCMNAKHHKEKPGPEDKLHEQCRPWRKNACCSTNTSQEAHKDVSYLYRFNWNHCGEMAPACKRHFIQDTCLYECSPNLGPWIQQVDQSWRKERVLNVPLCKEDCEQWWEDCRTSYTCKSNWHKGWNWTSGFNKCAVGAACQPFHFYFPTPTVLCNEIWTHSYKVSNYSRGSGRCIQMWFDPAQGNPNEEVARFYAAAMSGAGPWAAWPFLLSLALMLLWLLS
Regarding B4, the expression_or_secretion entry in data set [2] is given as “no change”.

B5: folate receptor alpha (FOLR1): N201A (protein)
parent chain: MAQRMTTQLLLLLVWVAVVGEAQTRIAWARTELLNVCMNAKHHKEKPGPEDKLHEQCRPWRKNACCSTNTSQEAHKDVSYLYRFNWNHCGEMAPACKRHFIQDTCLYECSPNLGPWIQQVDQSWRKERVLNVPLCKEDCEQWWEDCRTSYTCKSNWHKGWNWTSGFNKCAVGAACQPFHFYFPTPTVLCNEIWTHSYKVSNYSRGSGRCIQMWFDPAQGNPNEEVARFYAAAMSGAGPWAAWPFLLSLALMLLWLLS
As to B5, the “other: folate uptake” value in data set [1] is recorded as “decreases”.
